Patent publication US20210261668A1 (DRAGONFLY THERAPEUTICS, published 2021)

Legend:
Experiment in all cases: ELISA on coated NKG2D-Fc
[1] = target: T1, mouse NKG2D-Fc fusion protein (mouse; human, UniProt O54709 90-232)
T1 construct: extracellular domain; also called mouse recombinant NKG2D-Fc; recombinant mouse NKG2D-Fc; not shown: human IgG1 Fc domain
T1 sequence (looked up): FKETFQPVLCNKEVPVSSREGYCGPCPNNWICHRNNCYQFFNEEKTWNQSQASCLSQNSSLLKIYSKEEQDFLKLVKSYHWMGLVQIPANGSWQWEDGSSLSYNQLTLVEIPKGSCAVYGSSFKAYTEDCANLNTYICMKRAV

[2] = target: T2, cynomolgus NKG2D-Fc fusion protein (cynomolgus; human, UniProt P61252 73-216)
T2 construct: extracellular domain; also called cynomolgus recombinant NKG2D-Fc; cynomolgus recombinant NKG2D; not shown: human IgG1 Fc domain
T2 sequence (looked up): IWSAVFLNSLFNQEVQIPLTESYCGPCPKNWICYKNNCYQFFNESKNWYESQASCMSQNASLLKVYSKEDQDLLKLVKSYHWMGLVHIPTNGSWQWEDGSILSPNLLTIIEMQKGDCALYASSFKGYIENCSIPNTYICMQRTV

[3] = target: T3, human NKG2D-Fc fusion protein (human, UniProt P26718 73-216)
T3 construct: extracellular domain; also called recombinant human NKG2D-Fc; human recombinant NKG2D; not shown: human IgG1 Fc domain
T3 sequence (looked up): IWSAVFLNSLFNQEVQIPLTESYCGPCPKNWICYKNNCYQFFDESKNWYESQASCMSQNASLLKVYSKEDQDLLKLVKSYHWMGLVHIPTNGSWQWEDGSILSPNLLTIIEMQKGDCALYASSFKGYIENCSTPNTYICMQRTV

Row | binding result [1] | binding result [2] | binding result [3] | Binder
1 | binds | binds | binds | ADI-27705 (antibody, V domains shown) VH: QVQLQQWGAGLLKPSETLSLTCAVYGGSFSGYYWSWIRQPPGKGLEWIGEIDHSGSTNYNPSLKSRVTISVDTSKNQFSLKLSSVTAADTAVYYCARARGPWSFDPWGQGTLVTVSS VL: not shown
2 | binds | binds | binds | ADI-28226 (antibody, V domains shown, also called C26) VH: QVQLQQWGAGLLKPSETLSLTCAVYGGSFSGYYWSWIRQPPGKGLEWIGEIDHSGSTNYNPSLKSRVTISVDTSKNQFSLKLSSVTAADTAVYYCARARGPWSFDPWGQGTLVTVSS VL: DIQMTQSPSTLSASVGDRVTITCRASQSISSWLAWYQQKPGKAPKLLIYKASSLESGVPSRFSGSGSGTEFTLTISSLQPDDFATYYCQQYGSFPITFGGGTKVEIK
3 | binds | binds | binds | ADI-29429 (antibody, V domains shown) VH: QVQLQQWGAGLLKPSETLSLTCAVYGGSFSGYYWSWIRQPPGKGLEWIGEIDHSGSTNYNPSLKSRVTISVDTSKNQFSLKLSSVTAADTAVYYCARARGPWSFDPWGQGTLVTVSS VL: DIQMTQSPSTLSASVGDRVTITCRASQSIGSWLAWYQQKPGKAPKLLIYKASSLESGVPSRFSGSGSGTEFTLTISSLQPDDFATYYCQQYELYSYTFGGGTKVEIK
4 | binds | binds | binds | ADI-27727 (antibody, V domains shown) VH: QVQLVQSGAEVKKPGSSVKVSCKASGGTFSSYAISWVRQAPGQGLEWMGGIIPIFGTANYAQKFQGRVTITADESTSTAYMELSSLRSEDTAVYYCARGDSSIRHAYYYYGMDVWGQGTTVTVSS VL: not shown
5 | binds |  | binds | ADI-29443 (antibody, V domains shown, also called F43) VH: QLQLQESGPGLVKPSETLSLTCTVSGGSISSSSYYWGWIRQPPGKGLEWIGSIYYSGSTYYNPSLKSRVTISVDTSKNQFSLKLSSVTAADTAVYYCARGSDRFHPYFDYWGQGTLVTVSS VL: EIVLTQSPATLSLSPGERATLSCRASQSVSRYLAWYQQKPGQAPRLLIYDASNRATGIPARFSGSGSGTDFTLTISSLEPEDFAVYYCQQFDTWPPTFGGGTKVEIK
6 | binds | binds | binds | ADI-29403 (antibody, V domains shown) VH: QVQLQQWGAGLLKPSETLSLTCAVYGGSFSGYYWSWIRQPPGKGLEWIGEIDHSGSTNYNPSLKSRVTISVDTSKNQFSLKLSSVTAADTAVYYCARARGPWSFDPWGQGTLVTVSS VL: not shown
7 | binds | binds | binds | ADI-27740 (antibody, V domains shown, also called A40) VH: QVQLQQWGAGLLKPSETLSLTCAVYGGSFSGYYWSWIRQPPGKGLEWIGEIDHSGSTNYNPSLKSRVTISVDTSKNQFSLKLSSVTAADTAVYYCARARGPWSFDPWGQGTLVTVSS VL: DIQMTQSPSTLSASVGDRVTITCRASQSIGSWLAWYQQKPGKAPKLLIYKASSLESGVPSRFSGSGSGTEFTLTISSLQPDDFATYYCQQYHSFYTFGGGTKVEIK
8 | binds | binds | binds | ADI-27741 (antibody, V domains shown) VH: QVQLQQWGAGLLKPSETLSLTCAVYGGSFSGYYWSWIRQPPGKGLEWIGEIDHSGSTNYNPSLKSRVTISVDTSKNQFSLKLSSVTAADTAVYYCARARGPWSFDPWGQGTLVTVSS VL: DIQMTQSPSTLSASVGDRVTITCRASQSIGSWLAWYQQKPGKAPKLLIYKASSLESGVPSRFSGSGSGTEFTLTISSLQPDDFATYYCQQSNSYYTFGGGTKVEIK
9 | binds | binds | binds | ADI-27743 (antibody, V domains shown) VH: QVQLQQWGAGLLKPSETLSLTCAVYGGSFSGYYWSWIRQPPGKGLEWIGEIDHSGSTNYNPSLKSRVTISVDTSKNQFSLKLSSVTAADTAVYYCARARGPWSFDPWGQGTLVTVSS VL: not shown
10 | binds | binds | binds | ADI-29399 (antibody, V domains shown) VH: QVQLQQWGAGLLKPSETLSLTCAVYGGSFSGYYWSWIRQPPGKGLEWIGEIDHSGSTNYNPSLKSRVTISVDTSKNQFSLKLSSVTAADTAVYYCARARGPWSFDPWGQGTLVTVSS VL: not shown
11 | binds | binds | binds | ADI-29401 (antibody, V domains shown) VH: QVQLQQWGAGLLKPSETLSLTCAVYGGSFSGYYWSWIRQPPGKGLEWIGEIDHSGSTNYNPSLKSRVTISVDTSKNQFSLKLSSVTAADTAVYYCARARGPWSFDPWGQGTLVTVSS VL: DIQMTQSPSTLSASVGDRVTITCRASQSIGSWLAWYQQKPGKAPKLLIYKASSLESGVPSRFSGSGSGTEFTLTISSLQPDDFATYYCQQYDIYPTFGGGTKVEIK
12 | binds | binds | binds | ADI-29404 (antibody, V domains shown, also called F04) VH: QVQLQQWGAGLLKPSETLSLTCAVYGGSFSGYYWSWIRQPPGKGLEWIGEIDHSGSTNYNPSLKSRVTISVDTSKNQFSLKLSSVTAADTAVYYCARARGPWSFDPWGQGTLVTVSS VL: DIQMTQSPSTLSASVGDRVTITCRASQSISSWLAWYQQKPGKAPKLLIYKASSLESGVPSRFSGSGSGTEFTLTISSLQPDDFATYYCEQYDSYPTFGGGTKVEIK
13 | binds | binds | binds | ADI-29405 (antibody, V domains shown) VH: QVQLQQWGAGLLKPSETLSLTCAVYGGSFSGYYWSWIRQPPGKGLEWIGEIDHSGSTNYNPSLKSRVTISVDTSKNQFSLKLSSVTAADTAVYYCARARGPWSFDPWGQGTLVTVSS VL: DIQMTQSPSTLSASVGDRVTITCRASQSISSWLAWYQQKPGKAPKLLIYKASSLESGVPSRFSGSGSGTEFTLTISSLQPDDFATYYCQQYGSFPTFGGGTKVEIK
14 | binds | binds | binds | ADI-29407 (antibody, V domains shown) VH: QVQLQQWGAGLLKPSETLSLTCAVYGGSFSGYYWSWIRQPPGKGLEWIGEIDHSGSTNYNPSLKSRVTISVDTSKNQFSLKLSSVTAADTAVYYCARARGPWSFDPWGQGTLVTVSS VL: DIQMTQSPSTLSASVGDRVTITCRASQSISSWLAWYQQKPGKAPKLLIYKASSLESGVPSRFSGSGSGTEFTLTISSLQPDDFATYYCQQYQSFPTFGGGTKVEIK
15 | binds | binds | binds | ADI-29419 (antibody, V domains shown) VH: QVQLQQWGAGLLKPSETLSLTCAVYGGSFSGYYWSWIRQPPGKGLEWIGEIDHSGSTNYNPSLKSRVTISVDTSKNQFSLKLSSVTAADTAVYYCARARGPWSFDPWGQGTLVTVSS VL: not shown
16 | binds | binds | binds | ADI-29421 (antibody, V domains shown) VH: QVQLQQWGAGLLKPSETLSLTCAVYGGSFSGYYWSWIRQPPGKGLEWIGEIDHSGSTNYNPSLKSRVTISVDTSKNQFSLKLSSVTAADTAVYYCARARGPWSFDPWGQGTLVTVSS VL: not shown
17 | binds | binds | binds | ADI-29424 (antibody, V domains shown) VH: QVQLQQWGAGLLKPSETLSLTCAVYGGSFSGYYWSWIRQPPGKGLEWIGEIDHSGSTNYNPSLKSRVTISVDTSKNQFSLKLSSVTAADTAVYYCARARGPWSFDPWGQGTLVTVSS VL: DIQMTQSPSTLSASVGDRVTITCRASQSISSWLAWYQQKPGKAPKLLIYKASSLESGVPSRFSGSGSGTEFTLTISSLQPDDFATYYCQQYDSFITFGGGTKVEIK
18 | binds | binds | binds | ADI-29425 (antibody, V domains shown) VH: QVQLQQWGAGLLKPSETLSLTCAVYGGSFSGYYWSWIRQPPGKGLEWIGEIDHSGSTNYNPSLKSRVTISVDTSKNQFSLKLSSVTAADTAVYYCARARGPWSFDPWGQGTLVTVSS VL: not shown
19 | binds | binds | binds | ADI-29426 (antibody, V domains shown) VH: QVQLQQWGAGLLKPSETLSLTCAVYGGSFSGYYWSWIRQPPGKGLEWIGEIDHSGSTNYNPSLKSRVTISVDTSKNQFSLKLSSVTAADTAVYYCARARGPWSFDPWGQGTLVTVSS VL: DIQMTQSPSTLSASVGDRVTITCRASQSIGSWLAWYQQKPGKAPKLLIYKASSLESGVPSRFSGSGSGTEFTLTISSLQPDDFATYYCQQYHSFPTFGGGTKVEIK
